{"source": "patent US7807396", "proteins": {"B1": {"name": "human neprilysin expressed from a lentiviral construct in primary neuronal cultures of neprilysin deficient mice (protein)", "chain": "GKSESQMDITDINTPKPKKKQRWTPLEISLSVLVLLLTIIAVTMIALYATYDDGICKSSDCIKSAARLIQNMDATTEPCTDFFKYACGGWLKRNVIPETSSRYGNFDILRDELEVVLKDVLQEPKTEDIVAVQKAKALYRSCINESAIDSRGGEPLLKLLPDIYGWPVATENWEQKYGASWTAEKAIAQLNSKYGKKVLINLFVGTDDKNSVNHVIHIDQPRLGLPSRDYYECTGIYKEACTAYVDFMISVARLIRQEERLPIDENQLALEMNKVMELEKEIANATAKPEDRNDPMLLYNKMTLAQIQNNFSLEINGKPFSWLNFTNEIMSTVNISITNEEDVVVYAPEYLTKLKPILTKYSARDLQNLMSWRFIMDLVSSLSRTYKESRNAFRKALYGTTSETATWRRCANYVNGNMENAVGRLYVEAAFAGESKHVVEDLIAQIREVFIQTLDDLTWMDAETKKRAEEKALAIKERIGYPDDIVSNDNKLNNEYLELNYKEDEYFENIIQNLKFSQSKQLKKLREKVDKDEWISGAAVVNAFYSSGRNQIVFPAGILQPPFFSAQQSNSLNYGGIGMVIGHEITHGFDDNGRNFNKDGDLVDWWTQQSASNFKEQSQCMVYQYGNFSWDLAGGQHLNGINTLGENIADNGGLGQAYRAYQNYIKKNGEEKLLPGLDLNHKQLFFLNFAQVWCGTYRPEYAVNSIKTDVHSPGNFRIIGTLQNSAEFSEAFHCRKNSYMNPEKKCRVW"}, "B2": {"name": "recombinant rat insulysin with an N-terminal His6 affinity tag, expressed in baculovirus-infected Sf9 cells (protein)", "chain": "MNNPAIQRIEDHIVKSPEDKREYRGLELANGIKVLLISDPTTDKSSAALDVHIGSLSDPPNIPGLSHFCEHMLFLGTKKYPKENEYSQFLSEHAGSSNAFTSGEHTNYYFDVSHEHLEGALDRFAQFFLCPLFDASCKDREVNAVDSEHEKNVMNDAWRLFQLEKATGNPKHPFSKFGTGNKYTLETRPNQEGIDVREELLKFHSTYYSSNLMAICVLGRESLDDLTNLVVKLFSEVENKNVPLPEFPEHPFQEEHLKQLYKIVPIKDIRNLYVTFPIPDLQQYYKSNPGHYLGHLIGHEGPGSLLSELKSKGWVNTLVGGQKEGARGFMFFIINVDLTEEGLLHVEDIILHMFQYIQKLRAEGPQEWVFQECKDLNAVAFRFKDKERPRGYTSKIAGKLHYYPLNGVLTAEYLLEEFRPDLIDMVLDKLRPENVRVAIVSKSFEGKTDRTEQWYGTQYKQEAIPEDVIQKWQNADLNGKFKLPTKNEFIPTNFEILALEKDATPYPALIKDTAMSKLWFKQDDKFFLPKACLNFEFFSPFAYVDPLHCNMAYLYLELLKDSLNEYAYAAELAGLSYDLQNTIYGMYLSVKGYNDKQPILLKKITEKMATFEIDKKRFEIIKEAYMRSLNNFRAEQPHQHAMYYLRLLMTEVAWTKDELKEALDDVTLPRLKAFIPQLLSRLHIEALLHGNITKQAALGVMQMVEDTLIEHAHTKPLLPSQLVRYREVQLPDRGWFVYQRRNEVHNNCGIEIYYQTDMQSTSENMFLELFCQIISEPCFNTLRTKEQLGYIVFSGPRRANGIQGLRFIIQSEKPPHYLESRVEAFLITMEKAIEDMTEEAFQKHIQALAIRRLDKPKKLSAECAKYWGEIISQQYNYDRDNIEVAYLKTLSKDDIIKFYKEMLAVDAPRRHKVSVHVLAREMDSCPVVGEFPSQNDINLSEAPPLPQPEVIHNMTEFKRGLPLFPLVKPHINFMAAKL"}}, "key": {"[1]": {"target": "amyloid beta peptide Aβ1-40"}, "[2]": {"target": "aggregated amyloid β1-40 pre-coated on 96 well plates (synthetic amyloid plaque, synthaloid)"}, "[3]": {"target": "amyloid beta peptide Aβ1-42"}, "[4]": {"target": "T1, human β-endorphin1-31, P01189", "T1 chain": "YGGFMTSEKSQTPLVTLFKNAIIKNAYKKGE"}}, "data": [{"protein": "B1", "values": [{"measurement": "125I-Aβ1-40 peptide degradation in primary neuronal cultures", "setting": "[1]", "value": "neprilysin expressing neuronal cell cultures virtually destroyed all Aβ peptide in comparison to the controls"}]}, {"protein": "B2", "values": [{"measurement": "release of radioactivity from 125I-Aβ1-40 first deposited onto synthetic amyloid", "setting": "[2]", "value": "After a 24 hr incubation with 5 µg of insulysin no radioactivity was released"}, {"measurement": "prevention of deposition of radiolabeled Aβ1-40 onto synthaloid, 60 minutes preincubation with insulysin (FIG. 9B)", "setting": "[1]", "value": "50 ng insulysin is able to prevent the deposition of radiolabeled Aβ1-40 onto the synthetic amyloid"}, {"measurement": "prevention of deposition of radiolabeled Aβ1-40 onto synthaloid, insulysin added at zero time (FIG. 9A)", "setting": "[1]", "value": "50 ng of insulysin is able to prevent the deposition of radiolabeled Aβ1-40"}, {"measurement": "rate of cleavage of 25 µM Aβ1-40", "setting": "[1]", "value": 1.2, "unit": "µmols/min/mg enzyme"}, {"measurement": "sparing of neurotoxic effects on primary rat cortical neurons (30 µM Aβ1-40, 48 hrs)", "setting": "[1]", "value": "as little as 50 ng of insulysin was effective in sparing the neurotoxic effects of Aβ1-40"}, {"measurement": "sparing of neurotoxic effects on primary rat cortical neurons (25 µM Aβ1-42, 48 hrs)", "setting": "[3]", "value": "500 ng of insulysin was effective in sparing the neurotoxic effects of Aβ1-42"}, {"measurement": "specific activity of the recombinant enzyme (disappearance of β-endorphin by HPLC)", "setting": "[4]", "value": 2.6, "unit": "µmols/min/mg"}]}]}
